Values of other authors, collected in paper PMC9406010.

How the values were obtained:
CMKLR1 (Homo sapiens) = CMKLR1 (Homo sapiens) (UniProt Q99788)
CCRL2 (Homo sapiens) = CCRL2 (Homo sapiens) (UniProt O00421)
GPR1 (Homo sapiens) = GPR1 (Homo sapiens) (UniProt P46091)
GPR1 (Homo sapiens), sequence (P46091 whole entry): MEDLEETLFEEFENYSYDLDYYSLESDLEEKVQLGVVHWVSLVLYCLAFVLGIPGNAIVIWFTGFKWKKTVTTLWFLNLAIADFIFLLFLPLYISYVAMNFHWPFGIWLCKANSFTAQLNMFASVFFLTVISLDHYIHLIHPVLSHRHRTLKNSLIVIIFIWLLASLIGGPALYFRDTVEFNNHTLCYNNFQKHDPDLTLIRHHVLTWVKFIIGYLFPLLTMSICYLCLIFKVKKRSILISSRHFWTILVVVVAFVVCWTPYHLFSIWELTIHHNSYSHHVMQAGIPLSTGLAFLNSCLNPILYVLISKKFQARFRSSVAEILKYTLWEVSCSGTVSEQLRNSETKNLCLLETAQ

Chemerin, sequence (Q99969 21-157): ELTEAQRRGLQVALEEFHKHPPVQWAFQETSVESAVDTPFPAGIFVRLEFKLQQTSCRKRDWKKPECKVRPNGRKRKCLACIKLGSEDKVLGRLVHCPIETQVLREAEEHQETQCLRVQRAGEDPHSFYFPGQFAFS
CMKLR1 (Homo sapiens), sequence (Q99788 whole entry): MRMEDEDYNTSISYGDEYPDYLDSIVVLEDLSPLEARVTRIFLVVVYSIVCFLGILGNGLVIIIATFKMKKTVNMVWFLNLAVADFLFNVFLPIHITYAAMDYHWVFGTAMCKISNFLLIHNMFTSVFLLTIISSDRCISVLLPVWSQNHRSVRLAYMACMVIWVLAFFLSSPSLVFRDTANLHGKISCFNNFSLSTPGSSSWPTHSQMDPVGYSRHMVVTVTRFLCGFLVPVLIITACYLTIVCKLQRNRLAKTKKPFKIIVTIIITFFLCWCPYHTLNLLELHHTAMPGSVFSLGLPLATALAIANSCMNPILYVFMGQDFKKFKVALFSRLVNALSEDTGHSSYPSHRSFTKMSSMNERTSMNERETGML
CCRL2 (Homo sapiens), sequence (O00421 whole entry): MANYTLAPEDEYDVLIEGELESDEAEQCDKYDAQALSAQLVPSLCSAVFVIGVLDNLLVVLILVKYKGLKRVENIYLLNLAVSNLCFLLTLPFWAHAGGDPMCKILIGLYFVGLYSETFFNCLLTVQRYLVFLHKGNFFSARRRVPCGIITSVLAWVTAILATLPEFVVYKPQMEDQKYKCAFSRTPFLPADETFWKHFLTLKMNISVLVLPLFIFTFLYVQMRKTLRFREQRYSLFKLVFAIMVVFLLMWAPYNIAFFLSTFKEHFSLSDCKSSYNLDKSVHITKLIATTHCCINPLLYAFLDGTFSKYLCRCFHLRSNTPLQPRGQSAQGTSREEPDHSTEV

- Kd (CMKLR1 (Homo sapiens)): 0.88 nM
- Kd (CCRL2 (Homo sapiens)): 2.35 nM
- Kd (GPR1 (Homo sapiens)): 0.21 nM
Substance: Chemerin (from UniProt Q99969)
